{"source": "patent US20230121197A1", "about": "“ANTIBODIES SPECIFICALLY BINDING THE CARBOXYMETHYLATED CATALYTIC SUBUNIT OF PROTEIN PHOSPHATASE 2A” (Medizinische Universität Wien, priority 2020, published 2023)", "key": {"[1]": {"target": "T1, PP2Ac C-terminal peptide meL309, ac-HVTRRTPDYFL-CH3 (α-carboxymethylated) (human, SMILES …)", "T1 construct": "also called Y307-meL309; mePP2Ac", "T1 peptide": "Ac-HVTRRTPDYFL-OMe", "test": "ELISA (FIG. 4)", "description": "Nunc Medisorp 96-well ELISA flat-bottom plates were coated with peptides L309 (ac-[…]) (SEQ ID NO:18), meL309 (ac-[…]-CH₃) (SEQ ID NO:18) or amL309 (ac-[…]-NH₂) (SEQ ID NO:18) at 2 μg/ml in TBS at 4° C. over-night. After washing once with TBS, the wells were incubated with 2% BSA in TBS for 1 h at RT. After washing once with TBS, the wells were incubated with single clone hybridoma cell culture supernatant clone 7C10-C5 1:50 (˜1 μg/ml) in 1% BSA/TBS for 1 h at RT. After washing twice with TBS, wells were incubated with anti-mouse HRP-coupled secondary antibody for 1 h at RT, followed by washing 3× in PBS. Bound antibodies were detected by colorimetric reaction with 3,3′,5,5′-Tetramethylbenzidine as substrate, and absorbance was measured at 450 nm. Values were normalized to meL309 which was set to 1. Average and standard deviation of N=8 experiments are shown. Statistical significance was assessed using ANOVA followed by Tukey's HSD as a post-hoc test. P values are indicated with *, **, ***, which correspond to values of <0.05, <0.01, and <0.001. […]"}, "[2]": {"target": "T1, PP2Ac C-terminal peptide meL309, …", "test": "ELISA, peptide coated at 2 µg/ml, supernatant 1:50", "description": "Nunc Medisorp 96-well ELISA flat-bottom plates were coated with peptides L309 (ac-[…]) (SEQ ID NO:18), meL309 (ac-[…]-CH₃) (SEQ ID NO:18) or amL309 (ac-[…]-NH₂) (SEQ ID NO:18) at 2 μg/ml in TBS at 4° C. over-night. After washing once with TBS, the wells were incubated with 2% BSA in TBS for 1 h at RT. After washing once with TBS, the wells were incubated with single clone hybridoma cell culture supernatant clone 7C10-C5 1:50 (˜1 μg/ml) in 1% BSA/TBS for 1 h at RT. After washing twice with TBS, wells were incubated with anti-mouse HRP-coupled secondary antibody for 1 h at RT, followed by washing 3× in PBS. Bound antibodies were detected by colorimetric reaction with 3,3′,5,5′-Tetramethylbenzidine as substrate, and absorbance was measured at 450 nm. Values were normalized to meL309 which was set to 1. Average and standard deviation of N=8 experiments are shown. Statistical significance was assessed using ANOVA followed by Tukey's HSD as a post-hoc test. P values are indicated with *, **, ***, which correspond to values of <0.05, <0.01, and <0.001.\nSpecifically, flat-bottom Nunc-Immuno Medisorp 96-well ELISA plates (Thermo; 467320) were coated o/n at 4° C. with 50 μl of either a peptide of the sequence ac-[…]-OH (L309; unmodified) (SEQ ID NO:18) at a concentration of 2 μg/ml, a peptide of the sequence ac-[…]-CH₃ (meL309; methylated) (SEQ ID NO:18) at a concentration of 2 μg/ml in TBS (137 mM NaCl (AppliChem, #131659, 2.7 mM KCl (AppliChem, #131494), 24.8 mM Tris (AppliChem, #A1086), pH 7.4 with HCl) or a peptide of the sequence ac-[…]-NH₂ (amL309; amidated) (SEQ ID NO:18) at a concentration of 2 μg/ml in TBS. Of note, the “ac-” in the peptides described here and in other Examples refers to an acetylated N-terminus. Said acetylation neutralizes the positive charge at the N-terminus, and the free charged N-terminus is thereby removed."}, "[3]": {"target": "PP2Ac C-terminal peptide pT304-meL309, ac-HVTRRpTPDYFL-CH3 (human)", "test": "ELISA, peptide dilution series, supernatant 1:50"}, "[4]": {"target": "α-carboxymethylated PP2Ac (Homo sapiens, UniProt P67775)", "sequence (P67775 whole entry)": "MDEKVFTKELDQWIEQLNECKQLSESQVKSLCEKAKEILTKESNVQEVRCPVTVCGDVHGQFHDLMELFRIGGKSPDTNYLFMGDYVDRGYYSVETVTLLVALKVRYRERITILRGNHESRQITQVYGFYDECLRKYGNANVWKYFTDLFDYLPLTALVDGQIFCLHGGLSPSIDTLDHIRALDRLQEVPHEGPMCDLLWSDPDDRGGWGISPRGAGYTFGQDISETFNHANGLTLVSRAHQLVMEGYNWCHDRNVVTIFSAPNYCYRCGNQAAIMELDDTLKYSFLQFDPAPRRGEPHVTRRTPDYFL", "test": "IHC tissue microarray analysis of localized and metastatic prostate cancer tissue, Allred scoring", "set-up": "IHC tissue microarray analyses of prostate cancer tissue with the 7C10-C5 antibody; from tissue; host or cells: localized and metastatic prostate cancer tissue (tissue microarray, FFPE)", "description": "Immunohistochemical staining was performed on the DAKO Autostainer (DAKO, Carpinteria, Calif.) using Envision+ or liquid streptavidin-biotin and diaminobenzadine (DAB) as the chromogen. De-paraffinized sections were labeled with mouse monoclonal antibody 7C10-C5 (1:200) overnight at 4 C. Microwave 10 mM Tris HCl, pH9 containing 1 mM EDTA epitope retrieval was used prior to staining. Appropriate negative (no primary antibody) and positive controls (pancreas) were stained in parallel with each set of slides studied. Peptide competition studies were performed using 2 peptides ([…]*) (SEQ ID NO:115) differing in the methylation status at position L (marked with a *); FIG. 13E: Peptides were incubated at ambient temperature for 60 mins at 10-1000× molar ratios before being applied to the slide. FIG. 13F: Before being stained, slides were incubated in freshly made 200 mM NaOH for 10 mins at 4° C. and then neutralized by several washes in TBST.\nStained slides were scanned using an APERIO AT2 (Leica) and the digital images imported into QuPath (Bankhead et al., 2017). TMA cores were analyzed for percentage of cells staining and intensity. In FIGS. 13E and F, higher visibility of the dark cell nuclei indicates weaker α-carboxymethylated PP2Ac staining.\nThe assembly of trimeric tumor-suppressive PP2A holoenzymes is promoted/facilitated by PP2Ac α-carboxymethylation. The PP2Ac α-carboxymethylation levels correlate positively with the levels of methylation-sensitive trimeric PP2A holoenzymes. A truly specific anti-methyl-PP2Ac antibody (7C10-C5) can be used to determine the α-carboxymethylated PP2Ac levels in normal and disease tissue by IHC analyses of tissue microarrays of cancer, normal tissues and tissues obtained from other disease states including but not limited to heart disease, Alzheimers disease, and diabetes. The PP2A methylation status in disease tissue can be graded using the Allred scoring system that scores the proportion of cells that stain by IHC as well as the intensity of the IHC staining. […] Allied scoring is calculated the following way: […]"}, "[5]": {"settings": "IHC, mean±standard deviation, 12 samples"}}}
{"molecule": "7C10-C5 monoclonal antibody (antibody, V domains shown, Used as hybridoma culture supernatant (ELISA, Western blot, IHC) or at 50 µg/mL (SPR); also called 7C10 X63; clone 7C10-C5) VH: DVQLQESGPGLVKPSQSLSLTCSVTGYSITSGYYWNWIRQFPGNKLEWMGYISYDGSNNYNPSLKNRISITRDTSKNQFFLKLNSVTTEDTATYYCAGRFAYWGQGTLVTVSA VL: DVLMTQTPLSLPVSLGDQASISCRSSQSIVHSNGNTYLEWYLQKPGQSPKLLIYKVSNRFSGVPDRFSGSGSGTDFTLKINRVEAEDLGVYYCFQGSHVPWTFGGGTKLEIK", "values": [{"measurement": "fold stronger binding than to the amidated C-terminal part of PP2Ac (ELISA)", "setting": "[1]", "result": 6.15, "unit": "fold"}, {"measurement": "fold higher ELISA signal intensity than with the amidated peptide (amL309)", "setting": "[2]", "result": 6, "unit": "fold"}, {"measurement": "fold higher ELISA signal intensity than with the non-methylated peptide (L309)", "setting": "[2]", "result": 26, "unit": "fold"}, {"measurement": "fold higher ELISA signal intensity than with the α-carboxymethylated PP4c peptide (meL307)", "setting": "[2]", "result": "≥ 10", "unit": "fold"}, {"measurement": "fold detection difference against the carboxymethylated peptide (meL309) at lower peptide concentrations", "setting": "[3]", "result": 4, "unit": "fold"}]}
{"molecule": "7C10-C5: α-carboxymethylation specific mouse monoclonal IgG1 antibody from single clone hybridoma 7C10-C5 (DSM ACC3350) (antibody, Amino acid sequence of the recombinant 7C10-C5 heavy chain; Amino acid sequence of the recombinant 7C10-C5 light chain) heavy: MYRMQLLSCIALSLALVTNSDVQLQESGPGLVKPSQSLSLTCSVTGYSITSGYYWNWIRQFPGNKLEWMGYISYDGSNNYNPSLKNRISITRDTSKNQFFLKLNSVTTEDTATYYCAGRFAYWGQGTLVTVSAAKTTAPSVYPLAPVCGDTTGSSVTLGCLVKGYFPEPVTLTWNSGSLSSGVHTFPAVLQSDLYTLSSSVTVTSSTWPSQSITCNVAHPASSTKVDKKIEPRGPTIKPCPPCKCPAPNLLGGPSVFIFPPKIKDVLMISLSPIVTCVVVDVSEDDPDVQISWFVNNVEVHTAQTQTHREDYNSTLRVVSALPIQHQDWMSGKEFKCKVNNKDLPAPIERTISKPKGSVRAPQVYVLPPPEEEMTKKQVTLTCMVTDFMPEDIYVEWTNNGKTELNYKNTEPVLDSDGSYFMYSKLRVEKKNWVERNSYSCSVVHEGLHNHHTTKSFSRTPGK light: MDMRVPAQLLGLLLLWLSGARCDVLMTQTPLSLPVSLGDQASISCRSSQSIVHSNGNTYLEWYLQKPGQSPKLLIYKVSNRFSGVPDRFSGSGSGTDFTLKINRVEAEDLGVYYCFQGSHVPWTFGGGTKLEIKADAAPTVSIFPPSSEQLTSGGASVVCFLNNFYPKDINVKWKIDGSERQNGVLNSWTDQDSKDSTYSMSSTLTLTKDEYERHNSYTCEATHKTSTSPIVKSFNRNEC", "values": [{"measurement": "average Allred score, localized prostate cancer tissues", "setting": "[4]; [5]", "result": "2.2±2.3"}, {"measurement": "average Allred score, metastatic prostate cancer tissues", "setting": "[4]; [5]", "result": "0.4±1.4"}, {"measurement": "discrimination between localized and metastatic prostate cancer by IHC staining", "setting": "[4]; tissue microarray, Allred score", "result": "significantly lower levels"}]}
